We go through one molecule from patent publication US20210206875A1, “ERBB-2 TARGETING AGENT AND A BISPECIFIC ANTIBODY WITH ANTIGEN-BINDING SITES THAT BIND AN EPITOPE ON AN EXTRACELLULAR PART OF ERB-2 AND ERBB-3, FOR TREATMENT OF AN INDIVIDUAL WITH AN ERBB-2, ERBB-2/ERBB-3 POSITIVE TUMOUR” (Merus N.V., priority 2017, published 2021).

The subject of one experiment is BxPC-3-luc2 cells. Description: HRG dependent BxPC-3-luc2 proliferation assay. In kind it is cell-based, human. On the procedure: (§1) SK-BR-3 cells were cultured in DMEM-F/12 supplemented with L-glutamine and 10% heat inactivated FBS. BxPC-3-luc2 cells were cultured in RPMI1640 supplemented with 10% heat inactivated FBS. MCF-7 cells were cultured in RPMI1640 supplemented with 100 μM, NEAA1 mM sodium pyruvate, 4 μg/ml insulin and 10% heat inactivated FBS.
Antibodies were diluted to concentrations of 10 and 1 μg/ml and added in a volume of 100 μl in 96-well black bottom plates (ABgene AB-0932). […] Fluorescence was measured at 550 nm excitation with 590 nm emission wave length.

Another experiment has as its system MCF-7 cells. Briefly: HRG dependent MCF-7 proliferation assay. It counts as cell-based, human. The conditions noted are these: HRG dependent MCF-7 assay. On the procedure:
as §1
For the proliferation assay of MCF-7 and BxPC-3-luc2 cells, subconfluent cell cultures were washed with PBS, trypsinized and trypsin was inactivated by adding culture medium. Cells were washed twice in large volumes of assay medium (RPMI 1640 medium containing 0.05% BSA and 10 μg/ml Holo Transferrin). MCF-7 cells were diluted to 5×10^4 cells/ml in culture medium. Antibodies were diluted to concentrations of 10 and 1 μg/ml and added in a volume of 100 μl in 96-well black bottom plates (ABgene AB-0932). Cells were added at a density of 5000 cells/well in the presence of 1 ng/ml final concentration human Recombinant Human NRG1-beta 1/HRG1-beta 1 EGF Domain; (396-HB-050 RND). Human NRG1-beta 1/HRG1-beta 1 EGF Domain will hereinafter be referred to as HRG. […] Fluorescence was measured at 550 nm excitation with 590 nm emission wave length.
The IC50 for the bispecific antibodies, monoclonals and comparator antibodies was calculated using non-linear regression analysis with Prism software.

B1: #Ab6: anti-HER3 antibody of Merrimack Pharmaceuticals, recloned in IgG1 backbone (antibody, chains of the INN, looked up, V domains shown)
VH: EVQLLESGGGLVQPGGSLRLSCAASGFTFSHYVMAWVRQAPGKGLEWVSSISSSGGWTLYADSVKGRFTISRDNSKNTLYLQMNSLRAEDTAVYYCTRGLKMATIFDYWGQGTLVTVSS
VL: QSALTQPASVSGSPGQSITISCTGTSSDVGSYNVVSWYQQHPGKAPKLIIYEVSQRPSGVSNRFSGSKSGNTASLTISGLQTEDEADYYCCSYAGSSIFVIFGGGTKVTVL
modifications: IgG1
notes: anti-HER3 antibody of Merrimack Pharmaceuticals, recloned in IgG1 backbone
As to B1, the “BxPC3 % Inhibition” value in the experiment with BxPC-3-luc2 cells is −7%. Further, in the experiment with MCF-7 cells, half-maximal inhibition (IC50) was put at 0.504 nM.
